Experiment [1] has as its target native human IL-13 (human) (UniProt P35225). Kind of experiment: cell-based or functional assay.
Experiment [2] concerns the target non-human primate (cynomolgus monkey) IL-13 (cynomolgus monkey). Kind of experiment: cell-based or functional assay.

Chain of non-human primate (cynomolgus monkey) IL-13 (cynomolgus monkey) (Q5I6E4 other isoform, or with tags, fused parts or gaps limits assumed): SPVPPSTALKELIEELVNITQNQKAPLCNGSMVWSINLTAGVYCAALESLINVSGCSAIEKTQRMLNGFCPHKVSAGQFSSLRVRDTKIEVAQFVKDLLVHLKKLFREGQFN
Chain of native human IL-13 (human) (P35225 other isoform, or with tags, fused parts or gaps limits assumed): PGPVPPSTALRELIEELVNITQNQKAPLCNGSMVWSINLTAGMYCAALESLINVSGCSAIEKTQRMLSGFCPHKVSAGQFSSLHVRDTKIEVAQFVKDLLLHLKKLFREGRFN

B1: antibody with the murine heavy chain of MJ2-7 and a humanized light chain (antibody, part only; not given: humanized light chain, V domains shown, part only)
VH: EVQLQQSGAELVKPGASVKLSCTGSGFNIKDTYIHWVKQRPEQGLEWIGRIDPANDNIKYDPKFQGKATITADTSSNTAYLQLNSLTSEDTAVYYCARSEENWYDFFDYWGQGTTLTVSS
With B1, the STAT6 phosphorylation, IC50 in experiment [1] is 0.554 nM. In experiment [2], this molecule returned a CD23 expression, IC50 of 0.308 nM.

The record behind these values is patent US20090068195A1.
